# Results taken from patent publication US20220152104A1 (published 2022).
# T1: NY-ESO-1 peptide on HLA-B*40:01 (human)
# T1 peptide: EFTVSGNIL
# Molecular target: T1, NY-ESO-1 peptide on HLA-B*40:01
# Experiment: multimer staining
# Excerpt: FIGS. 4A-4I are graphical representations of positive staining of Jurkat 76/CD8 cells transduced with B*40:01/NY-ESO-1₁₂₅₋₁₃₃ TCR genes with a cognate multimer. Jurkat 76/CD8 cells transduced with the B*40:01/NY-ESO-1₁₂₅₋₁₃₃ TCR (FIGS. 4B, 4E, and 4H) were stained with the B*40:01/NY-ESO-1₁₂₅₋₁₃₃ multimer (FIG. 4B). […], B*40:01/unexchanged multimer (FIGS. 4G, 4H, and 4I), and A*02:01/NY-ESO-1₁₅₇₋₁₆₅ TCR (clone 1G4LY; FIGS. 4C, 4F, and 4I) as well as untransduced Jurkat 76/CD8 cells (FIGS. 4A, 4D, and 4G) were employed as controls The percentage of multimer⁺ CD8⁺ cells is shown.
# T cells (1×10⁵) were incubated for 30 minutes at 37° C. in the presence of 50 nM dasatinib (LC laboratories). The cells were then washed and incubated with 5-10 μg/ml of multimer for 30 minutes at room temperature, and R-phycoerythrin-conjugated AffiniPure Fab fragment goat anti-mouse IgG1 (Jackson ImmunoResearch Laboratories) was added for 15 minutes at 4° C. Next, the cells were washed three times and costained with an anti-CD8 mAb for 15 minutes at 4° C. Dead cells were finally discriminated using the LIVE/DEAD Fixable Dead Cell Stain kit.
binder,measurement,value
"B*40:01/NY-ESO-1125-133 TCR (TCR, V domains shown) Valpha: SQQGEEDPQALSIQEGENATMNCSYKTSINNLQWYRQNSGRGLVHLILIRSNEREKHSGRLRVTLDTSKKSSSLLITASRAADTASYFCATDRGTDKLIFGTGTRLQVFP Vbeta: NAGVTQTPKFRVLKTGQSMTLLCAQDMNHEYMYWYRQDPGMGLRLIHYSVGEGTTAKGEVPDGYNVSRLKKQNFLLGLESAAPSQTSVYFCASSPGVGTEAFFGQGTRLTVV",binding result,recognises
